Measured values as given in PMC10785082 (ACS Omega, 2023).
Each block holds one compound with its values, some of them ahead of it.

Assays:
USP3 ZnF-UBD = molecular target: T1, USP3 ZnF-UBD (Homo sapiens, UniProt Q9Y6I4); assay: SPR binding to USP3 ZnF-UBD
T1 sequence (Q9Y6I4 1-131): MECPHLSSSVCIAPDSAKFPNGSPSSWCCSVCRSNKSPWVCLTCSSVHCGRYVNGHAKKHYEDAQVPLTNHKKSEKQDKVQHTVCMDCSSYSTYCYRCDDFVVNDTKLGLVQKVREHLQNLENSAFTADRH

USP5 ZnF-UBD = molecular target: T2, USP5 ZnF-UBD (Homo sapiens, UniProt P45974); assay: SPR binding to USP5 ZnF-UBD
T2 sequence (P45974 171-290): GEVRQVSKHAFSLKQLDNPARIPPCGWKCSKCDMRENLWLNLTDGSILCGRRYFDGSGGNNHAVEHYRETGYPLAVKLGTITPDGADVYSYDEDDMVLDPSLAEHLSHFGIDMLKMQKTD

USP13 ZnF-UBD = molecular target: T3, USP13 ZnF-UBD (Homo sapiens, UniProt Q92995); assay: SPR binding to USP13 ZnF-UBD
T3 sequence (Q92995 183-307): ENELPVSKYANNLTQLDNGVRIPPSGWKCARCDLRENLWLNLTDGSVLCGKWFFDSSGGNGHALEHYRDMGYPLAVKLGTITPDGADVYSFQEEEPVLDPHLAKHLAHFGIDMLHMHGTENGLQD

USP16 ZnF-UBD = USP16 ZnF-UBD (Homo sapiens, UniProt Q9Y5T5); assay: SPR binding to USP16 ZnF-UBD
USP20 ZnF-UBD = USP20 ZnF-UBD (Homo sapiens, UniProt Q9Y2K6); assay: SPR binding to USP20 ZnF-UBD
USP33 ZnF-UBD = molecular target: T4, USP33 ZnF-UBD (Homo sapiens, UniProt Q8TEY7); assay: SPR binding to USP33 ZnF-UBD
T4 sequence (Q8TEY7 29-134): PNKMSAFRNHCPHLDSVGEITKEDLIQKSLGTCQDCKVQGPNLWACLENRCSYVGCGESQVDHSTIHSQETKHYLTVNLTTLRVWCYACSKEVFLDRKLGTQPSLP

USP39 ZnF-UBD = molecular target: T5, USP39 ZnF-UBD (Homo sapiens, UniProt Q53GS9); assay: SPR binding to USP39 ZnF-UBD
T5 sequence (Q53GS9 84-194): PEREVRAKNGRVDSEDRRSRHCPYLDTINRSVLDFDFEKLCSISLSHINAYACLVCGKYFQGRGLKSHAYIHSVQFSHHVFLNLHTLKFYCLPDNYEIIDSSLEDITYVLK

USP49 ZnF-UBD = molecular target: T6, USP49 ZnF-UBD (Homo sapiens, UniProt Q70CQ1); assay: SPR binding to USP49 ZnF-UBD
T6 sequence (Q70CQ1 1-115): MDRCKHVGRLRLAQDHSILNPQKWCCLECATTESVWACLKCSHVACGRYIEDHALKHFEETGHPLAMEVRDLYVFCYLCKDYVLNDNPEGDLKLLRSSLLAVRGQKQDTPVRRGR

USP51 ZnF-UBD = molecular target: T7, USP51 ZnF-UBD (Homo sapiens, UniProt Q70EK9); assay: SPR binding to USP51 ZnF-UBD
T7 sequence (Q70EK9 176-305): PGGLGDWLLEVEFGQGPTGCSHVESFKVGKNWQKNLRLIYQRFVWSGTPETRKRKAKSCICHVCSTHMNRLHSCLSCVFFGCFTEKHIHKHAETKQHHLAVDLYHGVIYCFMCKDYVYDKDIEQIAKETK

BRAP ZnF-UBD = molecular target: T8, BRAP ZnF-UBD (Homo sapiens, UniProt Q7Z569); assay: SPR binding to BRAP ZnF-UBD
T8 sequence (Q7Z569 304-390): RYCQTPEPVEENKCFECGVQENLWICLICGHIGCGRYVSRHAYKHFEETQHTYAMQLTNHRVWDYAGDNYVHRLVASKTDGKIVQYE

HDAC6 ZnF-UBD = molecular target: T9, HDAC6 ZnF-UBD (Homo sapiens, UniProt Q9UBN7); assay: SPR binding to HDAC6 ZnF-UBD
T9 sequence (Q9UBN7 1109-1215): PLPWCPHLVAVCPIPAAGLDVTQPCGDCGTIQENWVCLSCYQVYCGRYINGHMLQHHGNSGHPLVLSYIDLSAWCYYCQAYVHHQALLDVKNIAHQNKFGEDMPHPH

E3 ligase CDC20 = settings: read-out: KD for CDC20; cited from earlier work

Chain of USP20 ZnF-UBD (Q9Y2K6 1-141): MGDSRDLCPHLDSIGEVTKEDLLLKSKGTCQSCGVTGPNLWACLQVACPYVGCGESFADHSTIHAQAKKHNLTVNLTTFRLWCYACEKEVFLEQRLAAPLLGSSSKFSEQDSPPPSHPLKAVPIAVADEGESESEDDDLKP
Chain of USP16 ZnF-UBD (Q9Y5T5 25-185): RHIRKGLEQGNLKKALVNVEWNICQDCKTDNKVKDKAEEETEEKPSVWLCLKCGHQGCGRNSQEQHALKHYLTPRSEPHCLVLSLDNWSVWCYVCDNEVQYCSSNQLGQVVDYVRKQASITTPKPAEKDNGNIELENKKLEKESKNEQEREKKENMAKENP

Kd (USP3 ZnF-UBD; KD (µM) USP3): 191 µM
Compound: O=C(O)CNc1ncnc2ccccc12 [Compound 25]

KD (µM) USP3 (USP3 ZnF-UBD): No binding
KD (µM) USP5 (USP5 ZnF-UBD): No binding
KD (µM) USP13 (USP13 ZnF-UBD): No binding
KD (µM) USP16 (USP16 ZnF-UBD): No binding
KD (µM) USP20 (USP20 ZnF-UBD): No binding
KD (µM) USP33 (USP33 ZnF-UBD): No binding
KD (µM) USP39 (USP39 ZnF-UBD): No binding
KD (µM) USP49 (USP49 ZnF-UBD): No binding
KD (µM) USP51 (USP51 ZnF-UBD): No binding
KD (µM) BRAP (BRAP ZnF-UBD): No binding
KD (µM) HDAC6 (HDAC6 ZnF-UBD): No binding
Compound: Ub-RGGdel: C-terminal RGG-deleted Ub construct, negative control in the SPR assay

Compound: Cc1ncc([N+](=O)[O-])n1CCOC(=O)NC(Nc1ncccn1)C(Cl)(Cl)Cl (stereo not shown) [Apcin]
Kd (E3 ligase CDC20): 10 µM
